{"source": "the supplement of paper PMC6755084", "parents": {"B1": {"name": "minF1; the commonest letter at each place (parent)", "chain": "GAGACCGCAACTGAAAAGTTGTTATCAGAAATGGATGGGTTGAATTTCTGCACGTAGAAGCAAAAGGC"}}}
{"variants_of": "B1", "assay": "fraction ligated after 30 min (ligated reads / total reads); higher = more ligase activity", "settings": "with F1*subA RNA substrate (template-directed ligation), 42 °C", "summary_of_the_method": "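Oligo-pool templates of minimized ligase ribozyme variants were PCR-amplified, T7-transcribed and gel-purified. Ligated and unligated RNAs were gel-separated, reverse transcribed with barcoded primers, and MiSeq-sequenced; core bases were filtered at quality ≥30. Fraction ligated per variant was ligated reads over total reads.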"}
{"variant": "GAGACCGCAACTGAAAAGTTGTTATCAGAAATGGATGGGTTGCATTTCTGCACGTAGAAGCAAAAGGC", "fraction ligated": 0.115}
{"variant": "GAGACCGCAACTGAAAAGTTGTTATCAGAAATGGATGGGTTGTATTTCTGCACGTAGAAGCAAAAGGC", "fraction ligated": 0.13}
{"variant": "GAGACCGCAACTGAAAAGTTGTTATCAGAAATGGATGGGTTGGATTTCTGCACGTAGAAGCAAAAGGC", "fraction ligated": 0.0856}
{"variant": "GAGACCGCAACTGAAAAGTTGTTATCAGAAATGGATGGGTTCTATTTCTGCACGTAGAAGCAAAAGGC", "fraction ligated": 0.00312}
{"variant": "GAGACCGCAACTGAAAAGTTGTTATCAGAAATGGATGGGTTCGATTTCTGCACGTAGAAGCAAAAGGC", "fraction ligated": 0.0762}
{"variant": "GAGACCGCAACTGAAAAGTTGTTATCAGAAATGGATGGGTTCTCTTTCTGCACGTAGAAGCAAAAGGC", "fraction ligated": 0.000795}
{"variant": "GAGACCGCAACTGAAAAGTTGTTATCAGAAATGGATGGGTTCTTTTTCTGCACGTAGAAGCAAAAGGC", "fraction ligated": 0.00299}
{"variant": "GAGACCGCAACTGAAAAGTTGTTATCAGAAATGGATGGGTTCTGTTTCTGCACGTAGAAGCAAAAGGC", "fraction ligated": 0.0022}
{"variant": "GAGACCGCAACTGAAAAGTTGTTATCAGAAATGGATGGGTTTGATTTCTGCACGTAGAAGCAAAAGGC", "fraction ligated": 0.115}
{"variant": "GAGACCGCAACTGAAAAGTTGTTATCAGAAATGGATGGGTTTTATTTCTGCACGTAGAAGCAAAAGGC", "fraction ligated": 0.00326}
{"variant": "GAGACCGCAACTGAAAAGTTGTTATCAGAAATGGATGGGTTTCATTTCTGCACGTAGAAGCAAAAGGC", "fraction ligated": 0.000975}
{"variant": "GAGACCGCAACTGAAAAGTTGTTATCAGAAATGGATGGGTTGCCTTTCTGCACGTAGAAGCAAAAGGC", "fraction ligated": 0.00194}
{"variant": "GAGACCGCAACTGAAAAGTTGTTATCAGAAATGGATGGGTTGCTTTTCTGCACGTAGAAGCAAAAGGC", "fraction ligated": 0.00456}
{"variant": "GAGACCGCAACTGAAAAGTTGTTATCAGAAATGGATGGGTTGCGTTTCTGCACGTAGAAGCAAAAGGC", "fraction ligated": 0.00638}
{"variant": "GAGACCGCAACTGAAAAGTTGTTATCAGAAATGGATGGGTTTAATTTCTGCACGTAGAAGCAAAAGGC", "fraction ligated": 0.117}
{"variant": "GAGACCGCAACTGAAAAGTTGTTATCAGAAATGGATGGGTTCACTTTCTGCACGTAGAAGCAAAAGGC", "fraction ligated": 0.00284}
{"variant": "GAGACCGCAACTGAAAAGTTGTTATCAGAAATGGATGGGTTCAGTTTCTGCACGTAGAAGCAAAAGGC", "fraction ligated": 0.00439}
{"variant": "GAGACCGCAACTGAAAAGTTGTTATCAGAAATGGATGGGTTCATTTTCTGCACGTAGAAGCAAAAGGC", "fraction ligated": 0.00542}
{"variant": "GAGACCGCAACTGAAAAGTTGTTATCAGAAATGGATGGGTTTCGTTTCTGCACGTAGAAGCAAAAGGC", "fraction ligated": 0.00164}
{"variant": "GAGACCGCAACTGAAAAGTTGTTATCAGAAATGGATGGGTTTCCTTTCTGCACGTAGAAGCAAAAGGC", "fraction ligated": 0.00131}
{"variant": "GAGACCGCAACTGAAAAGTTGTTATCAGAAATGGATGGGTTTCTTTTCTGCACGTAGAAGCAAAAGGC", "fraction ligated": 0.0038}
{"variant": "GAGACCGCAACTGAAAAGTTGTTATCAGAAATGGATGGGTTGTTTTTCTGCACGTAGAAGCAAAAGGC", "fraction ligated": 0.00531}
{"variant": "GAGACCGCAACTGAAAAGTTGTTATCAGAAATGGATGGGTTGTCTTTCTGCACGTAGAAGCAAAAGGC", "fraction ligated": 0.00191}
{"variant": "GAGACCGCAACTGAAAAGTTGTTATCAGAAATGGATGGGTTGTGTTTCTGCACGTAGAAGCAAAAGGC", "fraction ligated": 0.00469}
{"variant": "GAGACCGCAACTGAAAAGTTGTTATCAGAAATGGATGGGTTCGTTTTCTGCACGTAGAAGCAAAAGGC", "fraction ligated": 0.00288}
{"variant": "GAGACCGCAACTGAAAAGTTGTTATCAGAAATGGATGGGTTCGCTTTCTGCACGTAGAAGCAAAAGGC", "fraction ligated": 0.000834}
{"variant": "GAGACCGCAACTGAAAAGTTGTTATCAGAAATGGATGGGTTCGGTTTCTGCACGTAGAAGCAAAAGGC", "fraction ligated": 0.00392}
{"variant": "GAGACCGCAACTGAAAAGTTGTTATCAGAAATGGATGGGTTTAGTTTCTGCACGTAGAAGCAAAAGGC", "fraction ligated": 0.0143}
{"variant": "GAGACCGCAACTGAAAAGTTGTTATCAGAAATGGATGGGTTTATTTTCTGCACGTAGAAGCAAAAGGC", "fraction ligated": 0.0246}
{"variant": "GAGACCGCAACTGAAAAGTTGTTATCAGAAATGGATGGGTTTACTTTCTGCACGTAGAAGCAAAAGGC", "fraction ligated": 0.00596}
{"variant": "GAGACCGCAACTGAAAAGTTGTTATCAGAAATGGATGGGTTTTCTTTCTGCACGTAGAAGCAAAAGGC", "fraction ligated": 0.00206}
{"variant": "GAGACCGCAACTGAAAAGTTGTTATCAGAAATGGATGGGTTTTTTTTCTGCACGTAGAAGCAAAAGGC", "fraction ligated": 0.00186}
{"variant": "GAGACCGCAACTGAAAAGTTGTTATCAGAAATGGATGGGTTTTGTTTCTGCACGTAGAAGCAAAAGGC", "fraction ligated": 0.000847}
{"variant": "GAGACCGCAACTGAAAAGTTGTTATCAGAAATGGATGGGTTGATTTTCTGCACGTAGAAGCAAAAGGC", "fraction ligated": 0.794}
{"variant": "GAGACCGCAACTGAAAAGTTGTTATCAGAAATGGATGGGTTGAGTTTCTGCACGTAGAAGCAAAAGGC", "fraction ligated": 0.79}
{"variant": "GAGACCGCAACTGAAAAGTTGTTATCAGAAATGGATGGGTTGACTTTCTGCACGTAGAAGCAAAAGGC", "fraction ligated": 0.646}
{"variant": "GAGACCGCAACTGAAAAGTTGTTATCAGAAATGGATGGGTTGAATTTCTGCACGTAGAAGCAAAAGGC", "fraction ligated": 0.761}
{"variant": "GAGACCGCAACTGAAAAGTTGTTATCAGAAATGGATGGGTTTGTTTTCTGCACGTAGAAGCAAAAGGC", "fraction ligated": 0.00254}
{"variant": "GAGACCGCAACTGAAAAGTTGTTATCAGAAATGGATGGGTTTGGTTTCTGCACGTAGAAGCAAAAGGC", "fraction ligated": 0.00264}
{"variant": "GAGACCGCAACTGAAAAGTTGTTATCAGAAATGGATGGGTTTGCTTTCTGCACGTAGAAGCAAAAGGC", "fraction ligated": 0.00145}
